# Results from a protein production outcome set (Wang et al. 2014).
# Assay: label from the status in PepcDB records
# 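Further: failed if final PepcDB status was selected cloned or expressed and not failed if soluble or beyond.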
row,Sequence,protein production
1,MNQDLSQTFLAITRNSTDLEWLQGALAPLGQVVGADGSLDELLALVDVTFANLVFVGLDREHVVAQAALIEGALEAKPMLAIVALGDGMDNQLVLNAMRAGARDFVAYGSRSSEVAGLVRRLSKRLPAVTPNTQLGGLTVLYGAQGDGDGALLASHLALVVQKSGQQTLLLDLGLPRGDSLALLGLESSFHFGDALRHLRRLDATLIDSAFTSAEAGLRILAYASHDAPLEHTSAAELYMLLSALRQHFQHIVVNLVGQPDSEALRTFVSHCDKLLWCTDQNVLDCRRNLAVLNHWREKGMKLEHARLLVDRYLRTVAPDSETLGKTFGLEVIAVLAYSPEVRLNAKNQGVTLFELAPREALTQSLRTLGERLAKRSQGLPKPKAGWLNRIMGGRLEHHHHHH,failed
2,PTLYEKIQQANEEAVTRIIQSKPILVGFDKAINVMPDMTETTILHAGPPITYENMCGPMKGAVQGALVFEGLAKDLADADRVARSGAITFSPCHEHDAVGSMAGVTSPNMYVHIIKNETYGNTAFTNLSEQLAKVLRFGANDQSVVDRLIWMRDVLGPLLHDAMTFCPEGIDLRLMLSQALHMGDECHNRNVAGSTLLVQALTPYMVQTDFSREQLKEVFEFLGSSDYFSGPTWMGAAKCALDAGHNVENSTIVTTMCRNGVEFGIRVSGIGGNHWFTGPAQRVIGPMFAGYTQEDAGLDMGDSAITETYGVGGFAMAAAPAIVPLVGGTVAEALNYSKEMLEITTKENPNVTIPVLDFMGIPTGIDVLKVLETGMLPVINTAIAHKEPGIGMIGAGLTNPPANVFNEALKALVATIN,not failed
3,MNFAGKHVGFGLTGSHCTYHEVLPQMERLVELGAKVTPFVTHTVQTTDTKFGESSEWINKIKQITEEPIVDSMVKAEPFGPKTPLDCMVIAPMTGNSTSKFANAMTDSPVLMGAKATLRNGKPVVVGISTNDALGLNGINIMRLMATKNIYFIPFGQDNPQVKPNSLVARMEALPETIEAALRGQQYQPVLIEKFRD,not failed
4,SYDYQSAFDIIGPVMMGPSSSHTAGAVKIGNSARAVLGDMPKHIEIRYYESFAKTHQGHGTDVAIVGGAMGYSTFDSRIKSSLDIAKDENITIDIIEDEGESIGQHPNCAYIKANTKDGRYIEVIGISIGGGTIKLKGINVNGLNVELNHG,failed
5,MGLVVSARSVSPLKKWPSRVRSFSINMGQPKSGQGWKLGACCPANRHNRERTRSCAPAGLTCLRPAPAPWACLGLDLCPSLGLDLGPSLGLALRSGPAEETMDPAGRARGQGATAGGLLLRAAAAAKGLREDLWGAAALPWRSLSRIPKREGLGEEDTAVAGHELRESRDEVSENQAAGRAGSKGLEKVPRAAPPDAAGGKLARRLSPGTPSPSLHRCTPLLPNERSFQNAAKSNNLDLMEKLFEKKVNINVVNNMNRTALHFAVGRNHLSAVDFLLKHKARVDVADKHGLTVIHLAAWSGSLEVMLMLVKAGADQRAKNQDGMSALHFATQSNHVRIVEYLIQDLHLKDLNQPDEKGRKPFLLAAERGHVEMIEKLTFLNLHTSEKDKIQWSTLWTAALTKMKTSRNSIAALTIEGACSPGTGVSTSSVSLLQGGNTALHLAAKHGHSPAVQVLLAQWQDINEMNELNISSLQIATRNGHASLVNFLLSENVDLHQKVEPKESPLHLVVINNHITVVNSLLSAQHDIDILNQKQQTPLHVAADRGNVELVETLLKAGCDLKAVDKQGKTALAVASRSNHSLVVGMLIKAERYYAWREEHHESIRDPSTGFTLTFKQDHSLETRHIRTLLWDLAYHQLKANEWQRLARSWNFTDDQIRAIEEQWSDENLGNIESLLGINQLISFENNEANMFLGKVFYSEHCPLMDILRREGVLAQGSICIRDCWELGMAEAQSMSTHYLYHIQEAVYRNIILTSYSPSVVLAVAHTEYGTMEGACKLSAASPLGNDPVNTGYSLAWQFCVIPLLSI,failed
6,MAASPKDPLDWAALLQLQMDEAFDFILRSEAGSVAECDLSPPVDIFETPDAFSVEFDLPGTDPADLSLKLCCNMLILEGVKRDDSREGGSYLCLERRFGRFCRTVEIPPTVDVSAVRADYRRGVLTVTFPRLSDRRKVMRDIPIIQGDN,failed
7,SRLPKSPPYTAFLGNLPYDVTEESIKEFFRGLNISAVRLPREPSNPERLKGFGYAEFEDLDSLLSALSLNEESLGNKRIRVDVADQAQDKD,not failed
8,MLRIIVIGTTGSGKTTFARALAQRLGLPHGEQDAWNHEANWQMAPLGRFRARVDTFTSQPAWVMDGNYGKARDLGWARADTLIWLDFPAWLVYSRLVRRTLWRVLTQQELWNGNRETWRGALLDPEGPLRWFWKTHWRRRQETPALAAEFPHLRLVRLRSPGEARRFLAAVGRGHPTALEHHHHHH,failed
9,MSQSSSPQQIPVVVLAGFLGSGKTTLLNHLLHRSGGSRIGAIVNDFGAIEIDAMAVAGALGDSTVSLGNGCLCCAVDAGELDLYLERLAHPSARVDVIVIEASGLAEPQELVRMVLASENARVVYGGLVEVVDAAEFDATRAKHPEVDRHLAMADLVVVNKIDRADDGERVLRAVRSLTDRAAVVPATYGRVDPELLFDCRPTGERIGQLSFDDLHEHRGEEDHHGHLHAAYDSVSFTSEAPMNPRRMMDFLDSRPEGLYRIKGYVDFGTADPRNRYAVHAVGRFLRFYPEPWAPAGPRLTQLVLIGSGIDTAALHKELDACTNDAPHADEHSMWGVLRYVQEQEQEQEQRQETAEAEQAG,failed
10,MNQRIETITALLDEKKAFDITHIDLSKTPYLVEDVIIATTLANKHALSLLDALKNTLKPLGEVFYQIDESNEEWIILDLGDLMIHLFTEECRKKFDLEGFLNAYKRGLPYQNA,failed
11,MSAYDNVIGGKLKLKGKALDVKAGGVKKKKKHKRQEEQALKITDHELIEGESTEALGKLIEGEEGDEEMNRSEKASEDAKLQQQLDDDDHLTPAERRYIEQKQRLDVQKLAKEANKSHRNRIEDFNQYLANMSEHYDIPKVGPG,failed
12,MVVMSKVLLNIGCADVDKPGYINVDARKTKVTHLVSNAWDLDCFEENSVHEIYSRHMLEHLNPEYAKLALQKWFYILEPEGKLVVIVPDIEFHARQLLGVSRSSFGDQMEHAFAGFWGWREKERGGSDFDAHQWGYTVATLENEIGAVGFERIERVVEGVDSEPWHLQMTARKPMTSLCCPMDFRGPFPLEHHHHHH,not failed
13,SEPPKMNPVVEPLSWMLGTWLSDPPGAGTYPTLQPFQYLEEVHISHVGQPMLNFSFNSFHPDTRKPMHRECGFIRLKPDTNKVAFVSAQNTGVVEVEEGEVNGQELCIASHSIARISFAKEPHVEQITRKFRLNSEGKLEQTVSMATTTQPMTQHLHVTYKKVTP,not failed
14,MQRVAQWAADVPEETLNLLELSQVAGVSLRQLQSAFKAFTGMAPSQWLRLRRLNSAHRELLSRGPTETTVAEVAMHWSFWHLGRFSSSYRALFKELPSQTLKRSAVARR,failed
15,SADQIRQSVRHSLKDILMKRLTDSNLKVPEEKAAKVATKIEKELFSFFRDTDAKYKNKYRSLMFNLKDPKNNILFKKVLKGEVTPDHLIRMSPEELASKELAAWRRR,not failed
16,MVKLDRYIGVTVFVAILAVLGVILGLALLFAFIDELNDISASYGIGDALRFIFLTAPRRAYDMLPMAALIGCLVGLGTLASNSELTIMRAAGVSLSRIVWAVMKPMLVLMLAGILVGEYVAPWTENIAQSGRALAQGGGDSQSSKRGLWHRQGREYIHINAVQPNGVLYGVTRYRFDEQRGLESASFAKRARFETDHWQLEEVTTTLLHPREKRSEVVKLPTERWDAQLSPQLLNTVVMEPEALSISGLWQYIHYLADQGLNNNRYWLAFWTKVLQPLVTAALVLMAISFIFGPLRSVTLGQRIFTGVLVGFVFRIAQDLLGPSSLVFDFPPLLAVVIPASICALAGVWLLRRAG,failed
17,MQMLRNLSTRTRSRRGGYERVSDDSTFSLLGAKLRRSTSVPYYAPSIRLGGDFPVILEKLPRQKPTKTVVTSKLSHPIFSLFDGYRRHNKKKATAKPEFSRYHEYLKESGMWDLRSNSPVIYFK,failed
18,SLTGEESDTLRKIVLEECLPNQQQNQNPSPCAEVKPNAGYVVLKDLNGPLQYLLMPTYRINGTESPLLTDPSTPNFFWLAWQARDFMSKKYGQPVPDRAVSLAINSRTGRTQNHFHIHISCIRPDVREQLDNNLANISSRWLPLPGGLRGHEYLARRVTESELVQRSPFMMLAEEVPEAREHMGSYGLAMVRQSDNSFVLLATQRNLLTLNRASAEEIQDHQCEILR,not failed
19,MTSTHQAAHRTGSTMRLRILIATDTYPPDVNGASYFTYRLATGLAERGHDVHVVCASASGPPRVEVQDGVVLHRMRSVPVLVHPTMRTALPLGLTGHIARIVDRLAPHVVHVQSHFTISRTALRCGRMAGVPVVLTNHFMPDNLFAHAHIPPRLHGVVGSLAWQDMIRVARTADYVTTPTQRAAELLASKGFTRTVEAVSCGIDLDRFRPRPQDRAQARAHFGLPDRETMVFVGRLDEEKRIDESIRALPVLLRHRDVQLVLAGTGQRREELERLARSLGVAERVHFLGFVPDDDLPLVYVAADLFVIGSVAELQSIATLEAMSTGLPVVAADALALPHLVRPGRNGYLYPPGDVAQLAQRLLDVLESPDRRTAMGRASRDIAQTHDHHRSLDRFEQIYTEVRPRSWTLSRSASPAARQRDTTVAA,failed
20,MMLYRYTQTKLAQIASELKQTGLWSATAPSVEAMASTAPFACDLMPFEQWLQFIFIPRMQALIDAGQALPSQIAIAPMAEHLWSEQAALAPLISTLNELDILLNEPRLEHHHHHH,not failed
21,MPAERDSSAAWAVCVYCASGPQHPELLGVAAELGEAIAERGWTLVWGGGRVSAMGAVASAARARGGRTVGVIPTVLMRREIADADADELIVSDTLHERKQIMEDRADAFIALPGGIGTLDEVLDAWTTGFLGLHAKPIVLLDPIGHYEGLWLWLSGLLDSGYITQAAMDRVVLVDKVGAALEACAPG,failed
22,ECSQDCATCSYRLVRPADINFLACVMECEGKLPSLKIWETCKELLQLSKPELPQDGTSTLRENSKPEESHLLAKRYGGFMKRYGGFMKKMDELYPMEPEE,failed
23,MALPHVVSSPSSTSLSPSFKSKPPFHSLRSLSPTVDNRRRCKLNSSFRCSSSSFSEKHHNAKSPKSDDIVELPLFPLPLVLFPGAILPLQIFEFRYRIMMHTLLQSDLRFGVVYSDSVSGSAAEVGCVGEVVKHERLVDDRFFLVCKGQERFRVTNVVRTKPYLVGEVTWLEDRPSGEENLDSLANEVEVLMKEVIRLSNRLNGKAEKEVQDLRRNQFPTPFSFFVGSTFEGAPREQQALLELEDTAARLKRERETLRNTLNYLTAASAVKDVFPSSS,failed
24,HPEKCSECSYSCSSKAALRIHERIHCTDRPFKCNYCSFDTKQPSNLSKHMKKFHGDM,not failed
25,MIIAGLDVGTTKVTTVIGELAPDGVLDIIGEGTVPSQGLRRGVVVNLERTTEAIRQSLFQAERVAGVKVERVVVGVGGPHLKSVTSHGLAAIRRGHTIAEADVERAIEQAKAYPFEGELELLHALPLEFKVDGQEGIRDPVGMAGVRLEVDVHLIAAGRGPLANLRRAVEEAGLALDAVCVQALASGLAVLTPEEEEMTVLLLDIGGGTTDVAVFRGGRLAHSAVVPLGGDHVTHDIAQLLKIPFEEAERVKRKYGAALPELADPELVLEINQEGGALGEVPAPELARIIRPRMREILHLARQSVDETLGPLEIQVNRVVLTGGGALLRGTDLLARQQYGLPVRVGKPQGVSGLTDVVASPAHAAAVGLVRYGASLPLKPQEAKRIREKPEDKPKGEGLWARIKEFLSNLF,failed
